The record followed here is doi:10.1101/2020.08.10.245050, “Crystal structures of Arabidopsis and Physcomitrella CR4 reveal the molecular architecture of CRINKLY4 receptor kinases” (bioRxiv, 2020).

For experiment [1], the target named is T1, biotinylated LRR ectodomain of BARELY ANY MERISTEM 1 (BAM1, residues 20 - 637) with Avi-tag (Arabidopsis (printed as AtBAM1), UniProt O49545 20-637, biotin (BirA biotinylation)).
T1 chain: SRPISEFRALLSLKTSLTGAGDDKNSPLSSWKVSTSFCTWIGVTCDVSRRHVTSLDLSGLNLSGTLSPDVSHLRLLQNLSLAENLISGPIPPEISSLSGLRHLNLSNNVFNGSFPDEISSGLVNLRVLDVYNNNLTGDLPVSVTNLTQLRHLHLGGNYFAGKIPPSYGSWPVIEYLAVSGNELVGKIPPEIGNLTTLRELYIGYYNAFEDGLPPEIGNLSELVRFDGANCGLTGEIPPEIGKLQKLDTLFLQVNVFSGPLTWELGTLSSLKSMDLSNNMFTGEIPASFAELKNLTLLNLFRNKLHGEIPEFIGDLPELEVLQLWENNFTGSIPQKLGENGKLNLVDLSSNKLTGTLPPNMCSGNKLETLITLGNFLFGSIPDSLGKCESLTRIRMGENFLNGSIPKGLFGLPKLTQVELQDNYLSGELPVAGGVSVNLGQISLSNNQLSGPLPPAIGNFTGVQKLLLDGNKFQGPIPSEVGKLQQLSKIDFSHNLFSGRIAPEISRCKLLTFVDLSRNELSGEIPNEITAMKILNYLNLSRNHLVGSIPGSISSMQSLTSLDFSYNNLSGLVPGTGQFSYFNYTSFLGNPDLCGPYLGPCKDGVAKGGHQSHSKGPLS

Experiment [2] concerns the target T1, biotinylated LRR ectodomain of BARELY ….
The target of experiment [3] is T2, biotinylated LRR ectodomain of BARELY ANY MERISTEM 1 (BAM1, residues 20 - 637) with Avi-tag (Arabidopsis (printed as AtBAM1), UniProt O49545 20-637, biotin (BirA biotinylation)).
T2 construct: BAM1 (AtBAM1) LRR ectodomain, residues 20-637, synthetic gene (Geneart), secreted with the Drosophila melanogaster BiP signal peptide; The sentence on the vector most likely means that the non-cleavable Avi-tag is C-terminal as well; also called AtBAM1^LRR; BAM1^LRR; source: biotinylated with BirA; not shown: StrepII, C-terminal, cleaved; 10x His, C-terminal, cleaved
T2 sequence (looked up): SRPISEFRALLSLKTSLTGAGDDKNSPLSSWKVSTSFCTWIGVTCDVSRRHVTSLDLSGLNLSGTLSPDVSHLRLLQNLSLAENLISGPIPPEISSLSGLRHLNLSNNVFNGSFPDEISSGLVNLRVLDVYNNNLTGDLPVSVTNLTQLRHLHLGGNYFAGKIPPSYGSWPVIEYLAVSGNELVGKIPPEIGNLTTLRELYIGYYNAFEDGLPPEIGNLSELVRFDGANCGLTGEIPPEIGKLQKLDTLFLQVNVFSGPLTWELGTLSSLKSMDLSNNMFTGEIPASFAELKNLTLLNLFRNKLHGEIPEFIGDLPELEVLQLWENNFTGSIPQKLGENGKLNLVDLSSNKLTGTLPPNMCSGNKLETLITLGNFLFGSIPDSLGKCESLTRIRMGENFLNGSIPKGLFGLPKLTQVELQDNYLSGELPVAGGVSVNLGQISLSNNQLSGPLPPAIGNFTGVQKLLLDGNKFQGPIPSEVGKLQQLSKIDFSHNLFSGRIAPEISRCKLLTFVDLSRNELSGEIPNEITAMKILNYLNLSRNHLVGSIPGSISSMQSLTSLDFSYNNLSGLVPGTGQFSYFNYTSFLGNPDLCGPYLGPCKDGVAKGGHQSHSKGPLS
Put plainly: grating-coupled interferometry (GCI); Creoptix WAVE, 4PCP chip; biotinylated ectodomain captured on immobilised streptavidin; CLE40 peptide as analyte, 1:2 dilution series from 10 µM; 25 °C; 20 mM citrate pH 5.0, 250 mM NaCl, 0.01 % Tween 20; mass transport binding model; triplicates. The note with it: both partners purified.

Read-outs that look alike come from different tables or passages of the source. Where no end group is shown, it is not given here. [ ]: non-standard residue; d: D form. Hyp = O=C(O)[C@@H]1C[C@@H](O)CN1

B1: CLAVATA3/ESR-RELATED 40 (CLE40) peptide (peptide)
peptide: RQV[Hyp]TGSDPLHH
notes: the P at position 4 is hydroxyproline; also called synthetic CLE40 peptide; source: synthetic peptide (Peptide Specialty Labs GmbH)
With B1, in experiment [1], the koff (in general, a measure of how fast the partners let go of each other) worked out at 2.4 s⁻¹. Moreover, the equilibrium dissociation constant (Kd) (usually a measure of binding affinity in units of concentration) in experiment [2] is 697 nM; in experiment [3], about 1000 nM.
